Results as given in patent US20170343530A1.

Target: mutant connector conjugated with a Strep-tag to its C-terminal
Assay: cell-based or functional assay

three discrete steps of channel change (conductance assay): 32%
Substance: streptavidin (coated on nanogold) (from UniProt P22629 37-163)
